Patent publication US20230192831A1 (published 2023)

Target: T1, human GREM1 (hGREM1-His; SEQ ID NO: 595) (human, UniProt O60565 25-184)
T1 construct: also called biotin-hGREM1-His; recombinant human GREM1 protein
T1 sequence: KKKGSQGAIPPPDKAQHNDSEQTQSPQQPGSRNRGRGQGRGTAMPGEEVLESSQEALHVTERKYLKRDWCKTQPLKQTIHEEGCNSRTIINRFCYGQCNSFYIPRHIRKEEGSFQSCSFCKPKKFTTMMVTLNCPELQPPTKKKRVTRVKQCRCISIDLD
Experiment: competition ELISA, 100 pM biotin-hGREM1-His on plate-coated hBMP4
Description: Data were analyzed using a sigmoidal dose-response model within Prism™ software. […] The absorbance values of the wells containing the highest concentration for each antibody were used to determine the percent maximum blocking.

- IC50: 7.2 pM
B1: H4H6243P (antibody, human IgG4, V domains shown)
VH: QVQLVQSGAEVKKPGASVKVSCKVSGYTLTELSMHWVRQAPGKGLEWMGGFDPEDGETIYAQKFQDRVTMTEDTSTDTAYMELSSLRSEDTAVYYCVTDDYEILPEYPYNMDVWGQGTTVTVSS
VL: DIQMTQSPSSLSASVGDRVTITCRASQSISTYLNWYQQKPGKAPKLLIYAASSLQSGVPSRFSGSGSGTDFTLTIRSLQPEDFATYYCQQSHITPFTFGPGTKVDIK
notes: H4H = human IgG4 Fc
